Test: label from the status in PepcDB records

Sequence	protein production
MSSILSDTAPRFLADYRPADFTINTVNLTIHLDDTCSQVVSELTIERKGDVQQALQLNGEHLTLVSLVLDNQALSKDQYQINETLLIIPASSLPDRSHFTLIITTEINPQENTALEGLFKSGDAFCTQCEAEGFRRISYYLDRPDVMATFTTKVIADKNLYPYLLSNGNKVASGELSDNKHFVTWHDPFPKPCYLFALVAGNFDLLEDNFTTASGREVALEIFVDEGNLAKAEHAMTSLQKSMAWDEETFGLEYDLDIYMIVAVDFFNMGAMENKGLNVFNSKYVLADSHCATDSDYFNIEAVIAHEYFHNWTGNRVTCRDWFQLSLKEGLTVFRDQQFSAQMHSSAVTRIQNVRVLRSQQFAEDAGPMAHPIRPEKVLEMNNFYTLTVYEKGSEVIRMLHTLIGVDKFRQGMDLYFSRFDGMAVTCDDFINAMSDASGKDLAQFKLWYSQSGTPVIKAQEMFDSQTNIYTLTLLQQSPITKNQQNPQALHIPIKVELISDNNNEASQSELLELTQTEQSWQFSGFTSKPTLAMLADFSAPVKLIFDQNNTSLLTIMQQADNSFCRWDAGQKLLMSYLHQLTFDIDYTIPNELINAINDMLNSGGDRAFIAEQLSLPSFDEAASLMVDIDPIALTNAITTLATFIARGTQQQLLVSYKACQHEDLKDNAVANRALKNVCLSYLSLLPEYQYLVTQQYQQATNNDDILKENMTDSLAALTCSSKNNLDDLNEQLEHFENKWQQTTLVMDKWFALNASVVSEDVFTQLANLLEHPQFSLKNPNRARSLIGAFAMNNPKYFHCPTGRGYQFLADQIAKLNEINPQVASRLITPLIQFKSFAPAHQKLMKAELVKLQALTNLSNDLKEKLDAALND	failed
MSSKDKKLSKPTSGRTGGIRTLSDLNRRSEPDSDSDSDGPQEYFTGGEKSGMLVQDPTKEPKHDDVDEIFNQARQLGAVEGPLEHPSSSRSFTGTGRLLSGESVPTALQQPEPVIHNIIFWSNGFTVDDGPLRKLDDPENASFLDSIRKSECPKELEPVDKRAPVHVNLMRRDEKCPEKEKLKVSFQGVGRTLGGASSSTASSQSNLTDVAAVQSPLQSLVVDETLPSTSIQLRLADGTRMVAKFNNHHTVNDIRGFIEFSRPGNPNNYTLQVMGFPPKPLTDPSQTIEQAGLASSVVIQKF	not failed
MSSLNLSPAAVSELVFSQTGLALISLLLTLFCYFAAKILYQRHRVWWLAPIVLAPVVITLLVFNLDIPLPTYFEYTHWLMAMLAPATIAFALPIYRERKLIRQYPLTIAFGVIAGLLLGMVSSWLLVKFVPLPVELSKSLLVRSVSTPFAMEATGAFGGVPELTAMMVLITGIIGMLVCEPLFKLMHIRTSLGKGVALGASAHGAGAAKASELGQQEGVIASLTMIFIGIAMVLGAPFFALIFS	failed
MSSQSIDDKFMSITQMKNLIHYVKKNDALSHLCIYILIITGSRFKPVQHLRYEDLNFKKSCIHLNDTKNKYSKRNVKVRIKDLEYIQSVINKHPINQNGYIFHNFINFISYSAINDVLVRFCLKYKYDKYTLKSLRHTHCSYLLAKGISIQYISKRLGHADIHTTLKIYSHLIKEFEDSENSLIEKNLNDLFSDLEHHHHHH	failed
MSSSGIEIAKPFVTATTNVLSTMAGIQPIPGQPYVKKNNVAKGDVSAVVGITGHKNGSISVTFTKQCAIAVVKAMLGDDIQDIIQDTKDAVGEVTNMISGQARAALSEMGMTFQGATPSVIMGDGHTISHVTKSPVIAIPFKTNHGEFTVEFCLE	not failed
MSSSLLSVLKEKSRSLKIRNKPVKMTSQERMIVHRCRFVDFTPATITSLAFSHKSNINKLTPSDLRLAIGRSNGNIEIWNPRNNWFQEMVIEGGKDRSIEGLCWSNVNGESLRLFSIGGSTVVTEWDLATGLPLRNYDCNSGVIWSISINDSQDKLSVGCDNGTVVLIDISGGPGVLEHDTILMRQEARVLTLAWKKDDFVIGGCSDGRIRIWSAQKNDENMGRLLHTMKVDKAKKESTLVWSVIYLPRTDQIASGDSTGSIKFWDFQFATLNQSFKAHDADVLCLTTDTDNNYVFSAGVDRKIFQFSQNTNKSQKNNRWVNSSNRLLHGNDIRAICAYQSKGADFLVSGGVEKTLVINSLTSFSNGNYRKMPTVEPYSKNVLVNKEQRLVVSWSESTVKIWTMGTDSSTEQNYKLVCKLTLKDDQNISTCSLSPDGQVLVVGRPSTTKVFHLQPVGNKLKVTKLDNDLLLRTSTKLVKFIDNSKIVICSCEDDVFIVDLESEEDEKPQEVELLEVTSTKSSIKVPYINRINHLEVDQNIAVISRGCGVVDILDLKARISKPLARLNNFITAVHINTSRKSVVVITADNKIYEFNMNLNSEAENEDSESVLTQWSKNNTDNLPKEWKTLKENCVGIFSDIENSSRLWFWGATWISRIDFDVDFPINKRRKQKKRTHEGLTITDESNFMNDEEDDEDDDIDMEISENLNVLLNQGNKIKSTDVQRNEESSGHFFFTDKYKPLLFVDLISSNELAIIERNPLTFHSKQKAFIQPKLVF	failed
MSSSQQIAKNARKAGNILKTISNEGRSDILYKIHDALKANAHAIEEANKIDLAVAKETGLADSLLKRLDLFKGDKFEVMLQGIKDVAELEDPVGKVKMARELDDGLTLYQVTAPVGVLLVIFESRPEVIANITALSIKSGNAAILKGGKESVNTFREMAKIVNDTIAQFQSETGVPVGSVQLIETRQDVSDLLDQDEYIDLVVPRGSNALVRKIKDTTKIPVLGHADGICSIYLDEDADLIKAKRISLDAKTNYPAGCNAMETLLINPKFSKWWEVLENLTLEGGVTIHATKDLKTAYFDKLNELGKLTEAIQCKTVDADEEQDFDKEFLSLDLAAKFVTSTESAIQHINTHSSRHTDAIVTENKANAEKFMKGVDSSGVYWNASTRFADGFRYGFGAEVGISTSKIHARGPVGLDGLVSYQYQIRGDGQVASDYLGAGGNKAFVHKDLDIKTVTLZ	not failed
MSSSSSVPAYLGDEDLTQETRALISSLPKEKGWLVSEIYEFQGLWHTQAILQGILICQKRFEAKDSDIILVTNPKSGTTWLKALVFALLNRHKFPVSSSGNHPLLVTNPHLLVPFLEGVYYESPDFDFSSLPSPRLMNTHISHLSLPESVKSSSCKIVYCCRNPKDMFVSLWHFGKKLAPEETADYPIEKAVEAFCEGKFIGGPFWDHILEYWYASRENPNKVLFVTYEELKKQTEVEMKRIAEFLECGFIEEEEVREIVKLCSFESLSNLEVNKEGKLPNGIETKTFFRKGEIGGWRDTLSESLAEEIDRTIEEKFKGSGLKFSS	not failed
MSSSTSQDFVSRPVIKKVFAKLQKEGDGAVVRRGISRSEQKLLDPFLMLDEFSVSPPAGFPDHPHRGITHQDFKGHKGTIYAGDVQWMTAGRGIIHSEMPEEEVNKEPNYQELSHSDIPKAEQNGVEVKVIAGESMGIQSPVYTRTPTMFLDFTLQPGAQIHQNVPESWNAFAYILESGEGGGVFSSSNSSPIPAHSVVVFGPGNDGVSVWNKSSSKQLRFVLIAGEPIGEPVVQYGPFVMNTQAEIDMTIEDYHYGKNGFEMAKYWRSQ	failed
MSSVPRFWRNLGSRYNLEGTRCKECGEYFYPPRNVCVNCRRMGELEPFKFKGTGEIVSYTLIHTGAEGFEGQAPYTLAIIKLDEGPRLTSQVVGNTDNIQIGTRVRSVFRKLGEDGERGMIYYGTKFVPVDALEHHHHHH	not failed
MSSVSEVNVDIKDFLMSINLEQYLLHFHESGFTTVKDCAAINDSLLQKIGISPTGHRRRILKQLQIILSKMQDIPIYA	not failed
MSTKDKYDILNLCFYEKEAIMANVLFLVGSLRDGSFNHQMAKKAEAFLTDKAQVSYIDLAKIPLFNQDIETPILPEIAELRAQVDAADAIWIFSPVYNYAIPGIVKNALDWLSRSLDLSNPKGPSILQDKITTVSAVANSGHDHLFKDFQHLLPFIRTQIAGEFTGSTINPEAWGTGVLELSDETLTKLEQQVADLLAAIQ	failed
MSTPDATSPGSQQQDVFDFLGRGAGDAPVVRIDTHGAAVFLEGNRAMKIKRAVKFPFLDYSTLAKRKIACEQELEVGHRFAPTIYRRVVPITRTDKGALQIGGEGPAVEWAVEMMRFDDSATLDHLARAGSLGPGLIDAVADAIAASHQAAPLAATAPWGASIEPILADDTNELAAGGFAAADVAALDNGSRNALGRLRPLLEQRGVAGFVRWCHGDLHLANIVVIDGKPTLFDAIEFDPALASVDVLYDLAFPLMDLLHYGRGSDSAQLLNRYLAVTNADNLDALSALPLLLSMRAAIRAKVMLARPAADETIRRANRAIAESYFELALRLIAPPPPRLIAVGGLSGTGKSVLARALSGNVPPLPGAVVLRSDVARKRLHGVADTERLPATAYTTEVTEAVYRGLVERAAHILKQGHSVIVDAVFSKPEERDAIESVAAGLGISFHGLFLTADLATRVARVAGRTADASDATPEIVRQQQSYAQGVIGWTSIDAGGTPAETLSRAVAALPQTAQVCSTLEHHHHHH	not failed
MSTPDNRSVNFFSLFRRGQHYAKTWPMEKRLAPVFVENRVIRMTRYAIRFMPPVAVFTLCWQIALGGQLGPAVATALFALSLPMQGLWWLGKRSVTPLPPSILNWFYEVRGKLQEAGQALAPVEGKPDYQALADTLKRAFKQLDKTFLDDL	not failed
MSTPRPSLTLTLLQAREAAMSFFRPSLNQHGLTEQQWRVIRILRQQGEMESYQLANQACILRPSMTGVLARLERDGIVRRWKAPKDQRRVYVNLTEKGQQCFVSMSGDMEKNYQRIQERFGEEKLAQLLELLNELKKIKP	not failed
MSTRRSAFLRGLWAATPFSLVIAPFGLLFGVVGTEAGLDIVEVMGFSIIVIAGAAQFAAVQMMADHAPTLIILATSLAVNLRMAMYSASLTPHLGPAPAGLRALIAYCLVDQTYTASMIEFDRAPQQSLGEKIAFFFGTVLPVCPLWYGSTYVGARLGTKIPPEFALDFAVPITFLAMIAPLLRTPAHIAAAGVSVALSLVLAFMPYNSGLLVAAVAAMVTGAQVEAWTERRRAA	failed
MSTSMPTALAGGRYQLGQLIGRGGMAEVHVALDTRLGRTVAVKIMRADLANDDIFLARFRREAHAVAQMNNPNIVNIYDSGEELVSSESGDTERLPYIVMEYVKGQTLRDIIKVNGALSQRDCEQVLLGVLNALDYSHRMGIIHRDIKPGNIMISEQGVVKVMDFGIARALDDSAATMTQSQGVVGTAQYLSPEQARGETVDMRSDLYSAGCVLYEMLTGRPPFTGDSAVAIAYQHVSEVATPPSAVVPGLPKMWDSICAKAMAKDRQNRYATASEFKTDILTYMNGGVPVAAAFNPLTDLSNMKARKEAERDLPTTPVEPQQQPTQAFNPVTGQFEQIPPANGANSAALQSRAQQRAAAAKAKKRKKIIIGSVIAVLAVALVGAGVVFAMSGAPNKSAEDKVTIPEVCNASTSKDNIKLKLETLGLTMVGKQDTDSTEPEGTCTKMSPEAGAKVAKGSKVKVWFSAGPQSTQVPDVKERSQEEARSILESAGFKVNATVRTEDSADIAKDMVTKTDPAAGQSVPKGTTITIYVSSGMTTVPSNLVGQSKDSVLQQYEGRFSFTVEQESSDTVEAGLITRVSPDSGSSIAQGGSITIWVSTGKEKVAVPNIAAGTKYATAELMLKAVGLKAQANGPADPTAVVVGIDPGAGAQVDVGSTVTITTKAAVTGDNNGNGNGNAGGSSSTGGTGPGGDK	failed

Reference: a protein production outcome set (Wang et al. 2014)
